Measurements published in a protein production outcome set (Wang et al. 2014).

assay: label from the status in PepcDB records
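Note: failed if final PepcDB status was selected cloned or expressed and not failed if soluble or beyond.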

Protein production, failed:
MTEGLAVELAGLRSFSIVMPAYNVVTQRGERIFRETLESIAASCRYLQQHFPYTPEGELILISDGSTDRTCDVAMAGWPNAVPLQLVGLPTNVGIAAARNIGVRLAKGEVIFFCDADDLYRPEHLFLALSVLNQPLPEPYAPAYFGAVRTGVYCRDRLHPYWHKSLEQTLVLNLAVRREVHEFIGGFPEDEVFRQFRYGAEDVAYAYWLHQFCHTARLEQRTVEYRRFPNSVFDRQLKKFQAAPGTVADDLDEGDRQQEAQIRQIMATRLQELQAKAAQGVALEHHHHHH
MTEIALIGNPNSGKTSLFNLLTGTSQRVGNWPGVTVERKSGNVKKLKEISVQDLPGIYSMSPYSPEEKVARDYLLSNHADSILNVVDATNLERNLYLTTQLIETGIPVTIALNMSDVLKNQGKSINSDKLAYQMGVPVVATSALKNTGVDKAVKKASQTTKGSVDSVQYPTYDAKFEAAIAQIIEVLGQTVPERSSRFYAIKLFERDRLVEEELDLSPFQKKEIKDIIQITEEVFTEDSESIVINQRYAFIERVSQMAQSQDNDFKMSASDKIDKIVTNRVLALPIFAVVMFLVYYLSIQTVGTMGTDWVNDILFGKYVPEFVTGVLEALKVQAWLQSLIIDGVVAGVGTVLGFLPQIFVLFICLGILEDIGYMSRIAFVMDRIFRRFGLSGKSFIPMLISTGCGVPGIMASRTIENERDRRITIMTTTFMPCSAKLSVIALIAGAFFPHNPWIAPSAYFMGMIAIILSGIALKKTSFLGGYTSPFIMELPSYHLPKVDAVLRYAFGKAMSFVKRAGTIIFSLTVLIWFMSSYNFTLHSVDTENSILASLGRLLAWIFTPLGFGNWKATVAALTGLAAKETVVATFGILYNNPDATETTHSLWVSLQGDYTALAAYSFLTFNLLCAPCFASIGAIKREMGNLKWTLVAIAYQTGLAYLVSLIIYQLGLVAFYGKPVTLWTGLALVLLLVMLYFIIRKPRQVKEKVITLDNLSLSHN
MTEIDSNLKDAQSVAVSGHVRPDGDCVGSTLAVYNYIKDYYPDIKARLYLEPSPNIFKFMQRADEIDSSYADDTVYDLFIACDCSDTGRLGSAAKYFESAKRTLCIDHHVTNGAFADTNYIFPDASSTCELVFELLPKERITIQIAECIYTGMVHDTGVFQYSCTSKKTMDIAGSLMEMGIDYSRIIDDTFYTKTFAQNKIMGQALLNAALYLNGDVILSAVSRAEMEKYDVLPKHLDGIVNQLRVTKDIKVAVFLYENEDGTYKGSLRVNGDYDVAKVASVFGGGGHVKAAGFTIEGPLEVATDRILTAIKDNI
MTEIKYKVITKDAFALPYTIIKAKNQPTKGVIVYIHGGGLMFGKANDLSPQYIDILTEHYDLIQLSYRLLPEVSLDCIIEDVYASFDAIQSQYSNCPIFTFGRSSGAYLSLLIARDRDIDGVIDFYGYSRINTEPFKTTNSYYAKIAQSINETMIAQLTSPTPVVQDQIAQRFLIYVYARGTGKWINMINIADYTDSKYNIAPDELKTLPPVFIAHCNGDYDVPVEESEHIMNHVPHSTFERVNKNEHDFDRRPNDEAITIYRKVVDFLNAI
MTELATMEFHAQPQAGEPKPWAFPAPERGSLDNGLTVLRCHRPGQQVVAVEVLLDAPLDAEPAGLDGVATIMARAFSEGTDKHSAEDFAAELERCGATLDAHADHPGVRLSLEVPASRLGKALGLLADALRAPAFADGEVERLVRNRLDEIPHELANPSRRAAKELSKELFPADARMSRPRQGTEETVETIDSAAVRAFYERHVRPATATAVVVGDLTGVDLDALLADTLGAWTGSAAEPRPVPPVTADDRGRVVIVDRPGAVQTQLLIGRTGADRHDRVWPAQVLGTYCLGGTLTSRLDRVLREEKGYTYGVRAFGQVLRSAPDGTGAAMLAISGSVDTPNTGPALEDLWTVLRKLAAEGLTDAERDVAVQNLVGVAPLKYETAAAVASTLADQVEQHLPDDFQATLYRQLAATGTVEATAAVVNAFPVDRLVTVLVGDAAQIKEPVEALGIGEVTVVAAE
MTELEDPSRDRLKHHFAQRVIHQARQILETWQRLQKAQWSVADMAELKEATLRLMRFAERFEQAEHVALAHEINQSLDAVDANRGRLNSHVITELNRLMQRLSRTGLRHGDRLEQTSLPPLRKPVYVVLQDHERAERLAKQLEFFGLSALSLHSVADFQRAMAQRHPAAIVMDVDFSGPGMGLELASQAQEGLEQKLPLLFFSVHETDTPTRLAAVRAGGEEFLTGALEASSLLEKIEVLTCVAQYEPYKVLIIDDSRAQAMHTERVLNAAGIVTRVLIDPIQAMSELADFQPDLIILDMYMPGCTGTELAKVIRHNDRYVSVPIIYLSAEDDQDKQLDAMSEGGDDFLTKPIKPRHLITTVRNRAARARNLKSRMVRDSLTGLYNHTHILQLLEDCSFRSRREGKPLCFAMLDIDHFKRVNDSHGHPMGDRVIKSLALFLKQRLRKTDFIGRYGGEEFAIVMPDTDIHNAHKVLDEIRHRFAEIHYPAQPADLFCTFSAGVVCLGADDDSLSLASQADNALYRAKHAGRNQVHSALVQAPYHIVLAEIEA
MTELGTVLDGKYEILKKVGQGGMSIVYLAMDNRLNKQWAVKEIKNDGSKSTATLLKSLEREANILKDVDHPVLPRIVDIINENGTIYVVMDFVEGKPLSDVLKAEGAQDQNKVIEWGRALASALDYLHSMNPPIIYRDMKPSNVMLKPDGSVKLIDFGTAKEYIVENNADTTALGTRGYAAPEQFGDSQGRGIYNTDARTDIYNLGATLYHLVTGKNPCEPPYEIKPIRQWNPTLSSGFEQIIIKCCQPSPEDRYQSCSELLYALDHYNELDNEFKAKAKRKVAVFATMAGLSILSGCCAIFGGVKKGQLKEQDYNNKIAEAEDAVDSSDYNKAFECYKAAVDIDPTASEAYIGYMDTYAYYYTDEDVATGTGTETPAEKGIKFALRNIDKVKDDVKYEIALLYFNEVPDYSAARKYFNMVGDTENFANDVKQAKYYEAICDNKINKTADFNDSKQEVFDFQQYNSDNIDDTNTYKYVNYLNIATIYVDKLSSDEELANRTIELLQEASDKLNDNATVLSKEFPEERGVNYYSGQYSAILCSVYTYLAEKESDPVEQVAYYREAINSIDSYLSGLDMNGDAVTEKTKNVYAEYSRKKAEIYVSMGDISGDDKNYELAENVYLSAEQMLGVDDYSADLYTSHLTYLYNRYTDLYGSAPDTWDKSARNTVISVYNSGSRISMLADGKKPQWNTLIHKPVIEAIVSGTGSKTGK
MTELRPGGPMYGPTPPLPLPTDRLQFAMPPMYESLDDERTHRKERLAGALRLFGRLGFEDGVSGHITARDPEYSDCFWVNPFGMPFKHVTVSDLVMVNASGQVIEGRYHVNQAAFTVHAQVHAARPDVVAVAHCHSVHGRALSALGDLLDPITQESCAFYEDHALYDAYTGVAVDAEEGRRIASALDTRKALVLRNHGLLTVGDSVDAAAWWFVSMERSCQVQLTARAAGRPVLIDHKQAVATREQLGGDLVAWINYQPLWQDISRSEPDLLS

Protein production, not failed:
MTEHSLWRFSRALHRALNDRQTEELATIIDDNIDWAIYGPIDMFPFFGARQGKAAVLEVCRQIADSVRIYRYHRESVMLGIDSAASMVRYSLTAAGTNRPISVRMALFTQFQNGRLTNLRMVLDTFDLVEQALGRPIHLPKIA
MTEIYTSVLSYRLLEGKAYSDADTRSLDRMMRSIDEFFSANPGYINFHIYRSYRTDSDVIFWYSSRNPDLMILAKERVQASMRPIAVSSFSSISIYDESPYNAMNKKLEDSLRLPPLRYFVAYPMSKTPDWYLLDFDTRKEIMHEHIKMALNHPDEKGIRSYTTYSFGIGDQEFVVLYEIPDIAAWSRVTEKLREARARKWIIKETPILLGRLVDAGDIAGFLL
